Measured values published in article PMC10786891, “Massively parallel profiling of RNA-targeting CRISPR-Cas13d”.

T1: EsCas13d, nuclease-dead (Eubacterium siraeum, UniProt B0MS50, R295A;H300A;R849A;H854A)
T1 sequence: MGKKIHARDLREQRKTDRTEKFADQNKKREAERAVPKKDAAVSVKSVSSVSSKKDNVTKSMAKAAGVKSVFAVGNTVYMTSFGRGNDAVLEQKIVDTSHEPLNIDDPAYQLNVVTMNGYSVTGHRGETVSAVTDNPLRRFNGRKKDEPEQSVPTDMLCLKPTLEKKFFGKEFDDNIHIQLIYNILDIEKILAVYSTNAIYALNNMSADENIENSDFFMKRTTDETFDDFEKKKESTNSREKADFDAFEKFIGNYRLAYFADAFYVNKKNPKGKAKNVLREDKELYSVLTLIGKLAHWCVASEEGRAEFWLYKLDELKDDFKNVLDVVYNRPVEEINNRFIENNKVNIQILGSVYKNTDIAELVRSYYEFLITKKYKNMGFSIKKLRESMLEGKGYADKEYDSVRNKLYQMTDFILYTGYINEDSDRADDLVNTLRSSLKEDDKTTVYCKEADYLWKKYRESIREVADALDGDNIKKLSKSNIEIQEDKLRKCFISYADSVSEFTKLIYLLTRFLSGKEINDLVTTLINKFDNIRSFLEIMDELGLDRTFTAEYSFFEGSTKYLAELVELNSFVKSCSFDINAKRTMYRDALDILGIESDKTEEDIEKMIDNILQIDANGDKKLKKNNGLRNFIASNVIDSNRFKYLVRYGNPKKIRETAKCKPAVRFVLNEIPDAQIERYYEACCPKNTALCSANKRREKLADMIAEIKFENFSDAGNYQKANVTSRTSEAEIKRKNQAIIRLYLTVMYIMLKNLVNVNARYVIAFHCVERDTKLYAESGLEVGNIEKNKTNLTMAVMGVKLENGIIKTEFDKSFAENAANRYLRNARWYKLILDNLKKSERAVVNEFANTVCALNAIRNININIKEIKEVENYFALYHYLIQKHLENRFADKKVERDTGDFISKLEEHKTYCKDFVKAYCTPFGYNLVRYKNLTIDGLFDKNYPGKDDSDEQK

B1: target 1 MT 5'PFS GGA 3'PFS CAG (mixed)
RNA 1: CACCCGUGCAAAAAUGCAGGGGUCUAAAACUGAGCGGAUAACCUCUCUAUGG
RNA 2: GGGAAUGGAUCCACAUCUACGAAUUCGGACCAUAGAGAGGUUAUCCGCUCACAGAGAUCGGAAGAGCACACGU
B2: target 1 MT 5'PFS UUG 3'PFS UAU (mixed)
RNA 1: CACCCGUGCAAAAAUGCAGGGGUCUAAAACUGAGCGGAUAACCUCUCUAUGG
RNA 2: GGGAAUGGAUCCACAUCUACGAAUUCUUGCCAUAGAGAGGUUAUCCGCUCAUAUAGAUCGGAAGAGCACACGU
B3: target 1 MT 5'PFS CUC 3'PFS UUA (mixed)
RNA 1: CACCCGUGCAAAAAUGCAGGGGUCUAAAACUGAGCGGAUAACCUCUCUAUGG
RNA 2: GGGAAUGGAUCCACAUCUACGAAUUCCUCCCAUAGAGAGGUUAUCCGCUCAUUAAGAUCGGAAGAGCACACGU
B4: target 1 MT 5'PFS CCG 3'PFS UGU (mixed)
RNA 1: CACCCGUGCAAAAAUGCAGGGGUCUAAAACUGAGCGGAUAACCUCUCUAUGG
RNA 2: GGGAAUGGAUCCACAUCUACGAAUUCCCGCCAUAGAGAGGUUAUCCGCUCAUGUAGAUCGGAAGAGCACACGU
B5: target 1 MT 5'PFS GCG 3'PFS CGU (mixed)
RNA 1: CACCCGUGCAAAAAUGCAGGGGUCUAAAACUGAGCGGAUAACCUCUCUAUGG
RNA 2: GGGAAUGGAUCCACAUCUACGAAUUCGCGCCAUAGAGAGGUUAUCCGCUCACGUAGAUCGGAAGAGCACACGU
B6: target 1 MT 5'PFS GUA 3'PFS GUG (mixed)
RNA 1: CACCCGUGCAAAAAUGCAGGGGUCUAAAACUGAGCGGAUAACCUCUCUAUGG
RNA 2: GGGAAUGGAUCCACAUCUACGAAUUCGUACCAUAGAGAGGUUAUCCGCUCAGUGAGAUCGGAAGAGCACACGU
B7: target 1 insG 3' of 11,insC 3' of 5 (mixed)
RNA 1: CACCCGUGCAAAAAUGCAGGGGUCUAAAACUGAGCGGAUAACCUCUCUAUGG
RNA 2: GGGAAUGGAUCCACAUCUACGAAUUCGUACCAUAGAGAGGUGUAUCCGCCUCACCGAGAUCGGAAGAGCACACGU
B8: target 1 MT 5'PFS CAU 3'PFS AUA (mixed)
RNA 1: CACCCGUGCAAAAAUGCAGGGGUCUAAAACUGAGCGGAUAACCUCUCUAUGG
RNA 2: GGGAAUGGAUCCACAUCUACGAAUUCCAUCCAUAGAGAGGUUAUCCGCUCAAUAAGAUCGGAAGAGCACACGU
B9: target 1 MT 5'PFS CCC 3'PFS AGC (mixed)
RNA 1: CACCCGUGCAAAAAUGCAGGGGUCUAAAACUGAGCGGAUAACCUCUCUAUGG
RNA 2: GGGAAUGGAUCCACAUCUACGAAUUCCCCCCAUAGAGAGGUUAUCCGCUCAAGCAGAUCGGAAGAGCACACGU
B10: target 1 MT 5'PFS GUA 3'PFS GUC (mixed)
RNA 1: CACCCGUGCAAAAAUGCAGGGGUCUAAAACUGAGCGGAUAACCUCUCUAUGG
RNA 2: GGGAAUGGAUCCACAUCUACGAAUUCGUACCAUAGAGAGGUUAUCCGCUCAGUCAGAUCGGAAGAGCACACGU
B11: target 1 MT 5'PFS CAG 3'PFS AAC (mixed)
RNA 1: CACCCGUGCAAAAAUGCAGGGGUCUAAAACUGAGCGGAUAACCUCUCUAUGG
RNA 2: GGGAAUGGAUCCACAUCUACGAAUUCCAGCCAUAGAGAGGUUAUCCGCUCAAACAGAUCGGAAGAGCACACGU
B12: target 1 MT 5'PFS GUG 3'PFS UAA (mixed)
RNA 1: CACCCGUGCAAAAAUGCAGGGGUCUAAAACUGAGCGGAUAACCUCUCUAUGG
RNA 2: GGGAAUGGAUCCACAUCUACGAAUUCGUGCCAUAGAGAGGUUAUCCGCUCAUAAAGAUCGGAAGAGCACACGU
B13: target 1 MT 5'PFS GCG 3'PFS CGC (mixed)
RNA 1: CACCCGUGCAAAAAUGCAGGGGUCUAAAACUGAGCGGAUAACCUCUCUAUGG
RNA 2: GGGAAUGGAUCCACAUCUACGAAUUCGCGCCAUAGAGAGGUUAUCCGCUCACGCAGAUCGGAAGAGCACACGU
B14: target 1 MT 5'PFS GUG 3'PFS UAC (mixed)
RNA 1: CACCCGUGCAAAAAUGCAGGGGUCUAAAACUGAGCGGAUAACCUCUCUAUGG
RNA 2: GGGAAUGGAUCCACAUCUACGAAUUCGUGCCAUAGAGAGGUUAUCCGCUCAUACAGAUCGGAAGAGCACACGU
B15: target 1 MT 5'PFS AAC 3'PFS AUU (mixed)
RNA 1: CACCCGUGCAAAAAUGCAGGGGUCUAAAACUGAGCGGAUAACCUCUCUAUGG
RNA 2: GGGAAUGGAUCCACAUCUACGAAUUCAACCCAUAGAGAGGUUAUCCGCUCAAUUAGAUCGGAAGAGCACACGU
B16: target 1 MT 5'PFS CCG 3'PFS UGC (mixed)
RNA 1: CACCCGUGCAAAAAUGCAGGGGUCUAAAACUGAGCGGAUAACCUCUCUAUGG
RNA 2: GGGAAUGGAUCCACAUCUACGAAUUCCCGCCAUAGAGAGGUUAUCCGCUCAUGCAGAUCGGAAGAGCACACGU
B17: target 1 U19G,A20C (mixed)
RNA 1: CACCCGUGCAAAAAUGCAGGGGUCUAAAACUGAGCGGAUAACCUCUCUAUGG
RNA 2: GGGAAUGGAUCCACAUCUACGAAUUCGUACCCGAGAGAGGUUAUCCGCUCACCGAGAUCGGAAGAGCACACGU
B18: target 1 MT 5'PFS CUC 3'PFS UUG (mixed)
RNA 1: CACCCGUGCAAAAAUGCAGGGGUCUAAAACUGAGCGGAUAACCUCUCUAUGG
RNA 2: GGGAAUGGAUCCACAUCUACGAAUUCCUCCCAUAGAGAGGUUAUCCGCUCAUUGAGAUCGGAAGAGCACACGU
B19: target 1 MT 5'PFS UCG 3'PFS ACU (mixed)
RNA 1: CACCCGUGCAAAAAUGCAGGGGUCUAAAACUGAGCGGAUAACCUCUCUAUGG
RNA 2: GGGAAUGGAUCCACAUCUACGAAUUCUCGCCAUAGAGAGGUUAUCCGCUCAACUAGAUCGGAAGAGCACACGU
B20: target 1 MT 5'PFS GCG 3'PFS CGG (mixed)
RNA 1: CACCCGUGCAAAAAUGCAGGGGUCUAAAACUGAGCGGAUAACCUCUCUAUGG
RNA 2: GGGAAUGGAUCCACAUCUACGAAUUCGCGCCAUAGAGAGGUUAUCCGCUCACGGAGAUCGGAAGAGCACACGU
B21: target 1 MT 5'PFS UUA 3'PFS AAC (mixed)
RNA 1: CACCCGUGCAAAAAUGCAGGGGUCUAAAACUGAGCGGAUAACCUCUCUAUGG
RNA 2: GGGAAUGGAUCCACAUCUACGAAUUCUUACCAUAGAGAGGUUAUCCGCUCAAACAGAUCGGAAGAGCACACGU
B22: target 1 MT 5'PFS GUG 3'PFS UAU (mixed)
RNA 1: CACCCGUGCAAAAAUGCAGGGGUCUAAAACUGAGCGGAUAACCUCUCUAUGG
RNA 2: GGGAAUGGAUCCACAUCUACGAAUUCGUGCCAUAGAGAGGUUAUCCGCUCAUAUAGAUCGGAAGAGCACACGU
B23: target 1 MT 5'PFS GUA 3'PFS GUU (mixed)
RNA 1: CACCCGUGCAAAAAUGCAGGGGUCUAAAACUGAGCGGAUAACCUCUCUAUGG
RNA 2: GGGAAUGGAUCCACAUCUACGAAUUCGUACCAUAGAGAGGUUAUCCGCUCAGUUAGAUCGGAAGAGCACACGU
B24: target 1 MT 5'PFS UUG 3'PFS UAC (mixed)
RNA 1: CACCCGUGCAAAAAUGCAGGGGUCUAAAACUGAGCGGAUAACCUCUCUAUGG
RNA 2: GGGAAUGGAUCCACAUCUACGAAUUCUUGCCAUAGAGAGGUUAUCCGCUCAUACAGAUCGGAAGAGCACACGU
B25: target 1 C2G,G5C (mixed)
RNA 1: CACCCGUGCAAAAAUGCAGGGGUCUAAAACUGAGCGGAUAACCUCUCUAUGG
RNA 2: GGGAAUGGAUCCACAUCUACGAAUUCGUACCAUAGAGAGGUUAUCCCCUGACCGAGAUCGGAAGAGCACACGU
B26: target 1 MT 5'PFS CUC 3'PFS UUC (mixed)
RNA 1: CACCCGUGCAAAAAUGCAGGGGUCUAAAACUGAGCGGAUAACCUCUCUAUGG
RNA 2: GGGAAUGGAUCCACAUCUACGAAUUCCUCCCAUAGAGAGGUUAUCCGCUCAUUCAGAUCGGAAGAGCACACGU
B27: target 1 MT 5'PFS GCG 3'PFS CGA (mixed)
RNA 1: CACCCGUGCAAAAAUGCAGGGGUCUAAAACUGAGCGGAUAACCUCUCUAUGG
RNA 2: GGGAAUGGAUCCACAUCUACGAAUUCGCGCCAUAGAGAGGUUAUCCGCUCACGAAGAUCGGAAGAGCACACGU
B28: target 1 MT 5'PFS UUA 3'PFS AAA (mixed)
RNA 1: CACCCGUGCAAAAAUGCAGGGGUCUAAAACUGAGCGGAUAACCUCUCUAUGG
RNA 2: GGGAAUGGAUCCACAUCUACGAAUUCUUACCAUAGAGAGGUUAUCCGCUCAAAAAGAUCGGAAGAGCACACGU

Each binder was assayed against T1, EsCas13d, nuclease-dead (assay: crRNA (strand 1, pre-loaded); Mg2+; 40 mM Tris-HCl pH 7.5, 150 mM NaCl, 6 mM MgCl2, 1 mM DTT, 0.1% Tween-20, 0.2 mg/ml BSA; 25 C; 10 min per concentration, then washed). Conditions: tags: His6-TwinStrep-SUMO cleaved; N-terminal SNAP kept (SNAP-Surface 488); label: 3' end held by stalled T7 RNA polymerase.

Row | Binder | Kd
1 | B1 | 24.5 ± 5 nM
2 | B2 | 16.9 ± 2.45 nM
3 | B3 | ~43.5 nM
4 | B4 | 9.95 ± 2.7 nM
5 | B5 | ~70 nM
6 | B6 | 8.5 ± 0.95 nM
7 | B7 | 78 ± 21 nM
8 | B8 | ~70 nM
9 | B9 | ~40 nM
10 | B10 | 9.35 ± 1 nM
11 | B11 | 75 ± 36.5 nM
12 | B12 | 14.8 ± 0.95 nM
13 | B13 | ~80 nM
14 | B14 | 19.9 ± 2.05 nM
15 | B15 | ~21 nM
16 | B16 | 2.6 ± 0.75 nM
17 | B17 | 80 ± 40 nM
18 | B18 | ~105 nM
19 | B19 | 28 ± 10 nM
20 | B20 | 67.5 ± 27.5 nM
21 | B21 | 34 ± 10.5 nM
22 | B22 | 11.3 ± 0.8 nM
23 | B23 | 11.4 ± 1.05 nM
24 | B24 | 42.5 ± 13.5 nM
25 | B25 | 14 ± 1.1 nM
26 | B26 | ~55 nM
27 | B27 | 49.5 ± 17 nM
28 | B28 | ~85 nM
